The values below come from patent US10660972B2, “Methods for coupling targeting peptides onto recombinant lysosomal enzymes for improved treatments of lysosomal storage diseases” (AMICUS THERAPEUTICS, INC., priority 2011, dated 2020).

Series [1] has as its system lysosomal enzyme activity (rhGAA, I2S). Briefly: Enzyme activity of lysosomal enzyme after conjugation or deglycosylation. In kind it is biochemical, human. Conditions: after conjugation of variant IGF2 peptide (data not shown). The source says: The high-mannose type N-glycans on rhGAA is problematic because it is believed that these carbohydrates cause the protein to be rapidly cleared from the circulation via macrophage and splenic mannose receptors. […] Deglycosylation of rhGAA can be performed after the enzyme is modified with S-Hynic and purified (via size exclusion chromatography or dialysis to remove excess crosslinker). This strategy allows for complete deglycosylation of rhGAA over 1-5 days using EndoF or EndoH without affecting enzyme activity. The deglycosylated hydrazide-modified rhGAA is then conjugated to PEG4-benzaldehyde-modified IGF-2 peptides. Alternatively, rhGAA deglycosylation can be performed concurrently during the conjugation of PEG4-benzaldehyde-modified IGF-2 peptide to hydrazide-modified rhGAA using high concentrations of EndoF or EndoH. Deglycosylated, IGF2 peptide-conjugated rhGAA is then purified by gel filtration chromatography or dialysis to remove excess phosphine-modified IGF-2 peptides and stored in acidic pH buffer (50 mM sodium phosphate, pH 6.2/100 mM NaCl/0.05% Polysorbate-80). […]
To assess the functional effects of IGF2 peptide for the cellular uptake of exogenous lysosomal enzymes, the internalization of IGF2-conjugated rbGAA (vIGF2-rhGAA) was evaluated in L6 rat skeletal muscle myoblasts. […]

Another series concerns Fabry disease. To be noted: 1 mg/kg body weight every other week; cited from earlier work.
For a further series, the target named is IGF-2/CI-MPR (Homo sapiens, UniProt P11717). Conditions: ligand affinity for IGF-2/CI-MPR; read-out: Binding Affinity (Apparent Kd; nM); cited from earlier work.
Chain of IGF-2/CI-MPR (P11717 41-2491): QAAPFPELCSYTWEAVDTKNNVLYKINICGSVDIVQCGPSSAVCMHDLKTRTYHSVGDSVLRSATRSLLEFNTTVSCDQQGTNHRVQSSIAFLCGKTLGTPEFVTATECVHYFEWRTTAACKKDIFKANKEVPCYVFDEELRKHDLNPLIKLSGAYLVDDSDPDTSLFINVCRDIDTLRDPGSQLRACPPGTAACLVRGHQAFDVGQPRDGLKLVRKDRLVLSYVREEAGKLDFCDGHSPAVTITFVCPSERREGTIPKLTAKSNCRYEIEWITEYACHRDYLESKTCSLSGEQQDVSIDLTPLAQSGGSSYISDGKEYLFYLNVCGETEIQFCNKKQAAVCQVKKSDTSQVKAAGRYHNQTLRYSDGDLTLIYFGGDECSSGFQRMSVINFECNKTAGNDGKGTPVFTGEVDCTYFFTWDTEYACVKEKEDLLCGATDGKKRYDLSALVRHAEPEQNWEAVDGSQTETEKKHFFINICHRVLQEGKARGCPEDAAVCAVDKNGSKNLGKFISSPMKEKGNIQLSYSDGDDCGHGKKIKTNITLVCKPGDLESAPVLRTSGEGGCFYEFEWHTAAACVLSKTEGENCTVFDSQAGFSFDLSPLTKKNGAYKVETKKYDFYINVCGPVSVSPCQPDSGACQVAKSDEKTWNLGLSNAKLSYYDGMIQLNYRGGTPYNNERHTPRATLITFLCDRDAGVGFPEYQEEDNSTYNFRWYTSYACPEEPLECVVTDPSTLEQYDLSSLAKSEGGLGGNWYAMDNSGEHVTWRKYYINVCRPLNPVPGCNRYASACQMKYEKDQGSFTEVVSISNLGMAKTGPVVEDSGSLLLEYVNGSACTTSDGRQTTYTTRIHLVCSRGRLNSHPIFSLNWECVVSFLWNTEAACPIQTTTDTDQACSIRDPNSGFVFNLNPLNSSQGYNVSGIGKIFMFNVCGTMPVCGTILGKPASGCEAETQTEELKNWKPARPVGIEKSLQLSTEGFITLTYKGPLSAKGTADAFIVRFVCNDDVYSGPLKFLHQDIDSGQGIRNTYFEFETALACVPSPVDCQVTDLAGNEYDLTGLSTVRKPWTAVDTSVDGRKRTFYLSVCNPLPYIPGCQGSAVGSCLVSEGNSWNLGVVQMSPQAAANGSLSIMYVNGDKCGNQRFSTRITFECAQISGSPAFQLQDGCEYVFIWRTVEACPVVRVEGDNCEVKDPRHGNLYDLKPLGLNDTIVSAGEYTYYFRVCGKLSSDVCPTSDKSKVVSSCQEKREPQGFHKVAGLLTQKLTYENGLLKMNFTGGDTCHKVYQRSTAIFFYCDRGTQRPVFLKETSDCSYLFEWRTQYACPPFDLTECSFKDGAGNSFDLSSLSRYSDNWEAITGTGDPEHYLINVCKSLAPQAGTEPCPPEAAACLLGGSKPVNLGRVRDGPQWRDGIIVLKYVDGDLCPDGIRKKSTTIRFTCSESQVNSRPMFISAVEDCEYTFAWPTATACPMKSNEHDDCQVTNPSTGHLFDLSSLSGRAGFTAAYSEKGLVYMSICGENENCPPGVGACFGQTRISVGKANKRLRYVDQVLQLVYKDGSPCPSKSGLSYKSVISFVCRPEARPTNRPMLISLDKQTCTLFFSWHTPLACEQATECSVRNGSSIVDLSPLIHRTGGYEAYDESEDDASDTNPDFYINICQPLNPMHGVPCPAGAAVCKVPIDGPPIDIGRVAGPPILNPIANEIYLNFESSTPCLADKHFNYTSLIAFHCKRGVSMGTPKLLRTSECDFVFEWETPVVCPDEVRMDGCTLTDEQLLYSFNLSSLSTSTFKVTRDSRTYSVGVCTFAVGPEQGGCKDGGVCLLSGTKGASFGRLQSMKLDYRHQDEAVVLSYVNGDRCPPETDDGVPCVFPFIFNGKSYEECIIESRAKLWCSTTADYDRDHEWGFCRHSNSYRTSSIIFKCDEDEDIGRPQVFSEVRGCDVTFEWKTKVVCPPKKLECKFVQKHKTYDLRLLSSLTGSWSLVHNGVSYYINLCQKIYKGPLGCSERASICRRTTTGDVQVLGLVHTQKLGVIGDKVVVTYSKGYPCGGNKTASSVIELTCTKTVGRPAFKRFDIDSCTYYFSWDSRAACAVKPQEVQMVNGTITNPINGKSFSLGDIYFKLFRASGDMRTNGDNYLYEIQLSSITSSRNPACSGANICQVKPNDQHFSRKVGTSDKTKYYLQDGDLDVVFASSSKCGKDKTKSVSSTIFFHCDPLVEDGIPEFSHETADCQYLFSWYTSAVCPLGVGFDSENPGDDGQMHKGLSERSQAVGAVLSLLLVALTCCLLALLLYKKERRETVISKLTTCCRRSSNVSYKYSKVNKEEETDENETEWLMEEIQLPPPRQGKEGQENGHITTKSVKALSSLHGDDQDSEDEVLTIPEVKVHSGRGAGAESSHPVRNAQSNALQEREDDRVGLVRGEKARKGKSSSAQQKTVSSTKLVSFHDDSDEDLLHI

B1: I2S: Recombinant human acid iduronidate 2-sulfatase (protein, UniProt P22304 34-455; P22304 456-550, looked up)
Iduronate 2-sulfatase 42 kDa …: TDALNVLLIIVDDLRPSLGCYGDKLVRSPNIDQLASHSLLFQNAFAQQAVCAPSRVSFLTGRRPDTTRLYDFNSYWRVHAGNFSTIPQYFKENGYVTMSVGKVFHPGISSNHTDDSPYSWSFPPYHPSSEKYENTKTCRGPDGELHANLLCPVDVLDVPEGTLPDKQSTEQAIQLLEKMKTSASPFFLAVGYHKPHIPFRYPKEFQKLYPLENITLAPDPEVPDGLPPVAYNPWMDIRQREDVQALNISVPYGPIPVDFQRKIRQSYFASVSYLDTQVGRLLSALDDLQLANSTIIAFTSDHGWALGEHGEWAKYSNFDVATHVPLIFYVPGRTASLPEAGEKLFPYLDPFDSASQLMEPGRQSMDLVELVSLFPTLAGLAGLQVPPRCPVPSFHVELCREGKNLLKHFRFRDLEEDPYLPG
Iduronate 2-sulfatase 14 kDa …: NPRELIAYSQYPRPSDIPQWNSDKPSLKDIKIMGYSIRTIDYRYTVWVGFNPDEFLANFSDIHAGELYFVDSDPLQDHNMYNDSQGGDLFQLLMP
For the molecule B1, the “effect of chemical conjugation of variant IGF2 peptide on enzyme activity” value in series [1] is listed as “did not affect enzyme activity”.

B2: Fabrazyme: recombinant acid α-galactosidase A; Genzyme Corp. (protein, UniProt P06280 32-429, looked up)
Alpha-galactosidase A: LDNGLARTPTMGWLHWERFMCNLDCQEEPDSCISEKLFMEMAELMVSEGWKDAGYEYLCIDDCWMAPQRDSEGRLQADPQRFPHGIRQLANYVHSKGLKLGIYADVGNKTCAGFPGSFGYYDIDAQTFADWGVDLLKFDGCYCDSLENLADGYKHMSLALNRTGRSIVYSCEWPLYMWPFQKPNYTEIRQYCNHWRNFADIDDSWKSIKSILDWTSFNQERIVDVAGPGGWNDPDMLVIGNFGLSWNQQVTQMALWAIMAAPLFMSNDLRHISPQAKALLQDKDVIAINQDPLGKQGYQLRQGDNFEVWERPLSGLAWAVAMINRQEIGGPRSYTIAVASLGKGVACNPACFITQLLPVKRKLGFYEWTSRLRSHINPTGTVLLQLENTMQMSLKDLL
In the case of B2, the “clinical effectiveness in Fabry disease” value in the series on Fabry disease is “sufficient to clear accumulated substrate from endothelial cells”.

B3: beta-galactosidase: lysosomal enzyme listed as ligand of IGF-2/CI-MPR (protein, UniProt P16278 29-677, looked up)
Beta-galactosidase: QRMFEIDYSRDSFLKDGQPFRYISGSIHYSRVPRFYWKDRLLKMKMAGLNAIQTYVPWNFHEPWPGQYQFSEDHDVEYFLRLAHELGLLVILRPGPYICAEWEMGGLPAWLLEKESILLRSSDPDYLAAVDKWLGVLLPKMKPLLYQNGGPVITVQVENEYGSYFACDFDYLRFLQKRFRHHLGDDVVLFTTDGAHKTFLKCGALQGLYTTVDFGTGSNITDAFLSQRKCEPKGPLINSEFYTGWLDHWGQPHSTIKTEAVASSLYDILARGASVNLYMFIGGTNFAYWNGANSPYAAQPTSYDYDAPLSEAGDLTEKYFALRNIIQKFEKVPEGPIPPSTPKFAYGKVTLEKLKTVGAALDILCPSGPIKSLYPLTFIQVKQHYGFVLYRTTLPQDCSNPAPLSSPLNGVHDRAYVAVDGIPQGVLERNNVITLNITGKAGATLDLLVENMGRVNYGAYINDFKGLVSNLTLSSNILTDWTIFPLDTEDAVRSHLGGWGHRDSGHHDEAWAHNSSNYTLPAFYMGNFSIPSGIPDLPQDTFIQFPGWTKGQVWINGFNLGRYWPARGPQLTLFVPQHILMTSAPNTITVLELEWAPCSSDDPELCAVTFVDRPVIGSSVTYDHPSKPVEKRLMPPPPQKNKDSWLDHV
Regarding B3, the Kd with IGF-2/CI-MPR was 20 nM.
